Biological target: T1, UL34^(174-194) peptide, unlabelled (HSV-1, UniProt P10218 174-194, N-terminal acetyl; C-terminal amide)
T1 peptide: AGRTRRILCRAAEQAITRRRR
Assay: cross-linking

Binder	binding result
Ac-RKSLPPHARK-NH2 [UL31^(41-50) peptide (UL31 mini-MPR)]	binds
Ac-RRSRSSAAGGTLGVVRRASRK-NH2 [UL31^(22-42) peptide (middle of the UL31 MPR)]	binds
